Assay results: paper PMC11931385, “Structural and functional analysis of cancer-associated missense variants in the retinoblastoma protein pocket domain” (The Journal of Biological Chemistry, 2025)
No end group written: not given here. TMR = tetramethyl rhodamine dye

Tests used:
Assay in all cases: fluorescence polarisation; 25 °C; unlabeled Rb^P titrated against 1.5 nM TMR-E2F1^TD or 7.5 nM TMR-E7^LxCxE; 25 mM Tris pH 8.0, 200 mM NaCl, 1 mM DTT, 0.1% Tween-20; 2 min incubation; quadratic fit; apparent Kd for the variants, Kd for WT
Details in all cases: both partners purified
Rb^P E539D = molecular target: T1, Rb^P E539D (human, UniProt P06400 380-788, E539D)
T1 construct: also called variant 24
T1 sequence (looked up): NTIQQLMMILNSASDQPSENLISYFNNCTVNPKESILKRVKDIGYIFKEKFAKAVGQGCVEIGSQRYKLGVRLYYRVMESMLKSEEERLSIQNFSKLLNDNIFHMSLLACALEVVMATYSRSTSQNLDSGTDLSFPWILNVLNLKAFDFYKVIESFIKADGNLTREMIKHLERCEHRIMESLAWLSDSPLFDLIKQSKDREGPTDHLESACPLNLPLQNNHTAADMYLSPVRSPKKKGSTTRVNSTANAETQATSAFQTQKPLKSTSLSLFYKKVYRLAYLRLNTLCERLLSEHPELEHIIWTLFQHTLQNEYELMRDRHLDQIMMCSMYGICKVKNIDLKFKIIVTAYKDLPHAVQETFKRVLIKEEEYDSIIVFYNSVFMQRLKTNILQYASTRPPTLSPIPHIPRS

Rb^P K548N = molecular target: T2, Rb^P K548N (human, UniProt P06400 380-788, K548N)
T2 construct: also called variant 26
T2 sequence (looked up): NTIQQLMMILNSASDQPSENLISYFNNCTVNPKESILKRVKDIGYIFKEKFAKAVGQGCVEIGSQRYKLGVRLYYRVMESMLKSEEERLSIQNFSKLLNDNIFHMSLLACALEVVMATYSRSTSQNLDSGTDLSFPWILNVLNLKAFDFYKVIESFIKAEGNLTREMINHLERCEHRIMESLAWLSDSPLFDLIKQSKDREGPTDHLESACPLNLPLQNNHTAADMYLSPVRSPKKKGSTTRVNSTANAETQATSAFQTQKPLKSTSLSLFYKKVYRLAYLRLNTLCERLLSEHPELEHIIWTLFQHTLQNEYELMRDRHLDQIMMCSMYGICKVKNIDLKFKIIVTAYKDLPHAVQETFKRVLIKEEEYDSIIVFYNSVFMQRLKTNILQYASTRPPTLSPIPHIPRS

Rb^P V754G = molecular target: T3, Rb^P V754G (human, UniProt P06400 380-788, V754G)
T3 construct: also called variant 73
T3 sequence (looked up): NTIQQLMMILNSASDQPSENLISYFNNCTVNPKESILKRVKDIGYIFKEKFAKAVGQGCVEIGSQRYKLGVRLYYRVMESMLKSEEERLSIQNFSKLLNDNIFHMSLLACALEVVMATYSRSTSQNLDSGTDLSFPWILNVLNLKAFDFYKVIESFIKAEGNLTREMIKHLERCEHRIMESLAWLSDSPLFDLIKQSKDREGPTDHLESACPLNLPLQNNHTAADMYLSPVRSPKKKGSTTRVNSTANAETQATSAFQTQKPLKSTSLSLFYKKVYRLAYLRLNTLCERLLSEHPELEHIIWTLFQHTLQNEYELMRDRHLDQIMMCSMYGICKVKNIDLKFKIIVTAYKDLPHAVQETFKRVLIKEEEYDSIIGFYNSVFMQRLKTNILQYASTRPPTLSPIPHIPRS

Rb^P Y606C = molecular target: T4, Rb^P Y606C (human, UniProt P06400 380-788, Y606C)
T4 construct: also called variant 37
T4 sequence (looked up): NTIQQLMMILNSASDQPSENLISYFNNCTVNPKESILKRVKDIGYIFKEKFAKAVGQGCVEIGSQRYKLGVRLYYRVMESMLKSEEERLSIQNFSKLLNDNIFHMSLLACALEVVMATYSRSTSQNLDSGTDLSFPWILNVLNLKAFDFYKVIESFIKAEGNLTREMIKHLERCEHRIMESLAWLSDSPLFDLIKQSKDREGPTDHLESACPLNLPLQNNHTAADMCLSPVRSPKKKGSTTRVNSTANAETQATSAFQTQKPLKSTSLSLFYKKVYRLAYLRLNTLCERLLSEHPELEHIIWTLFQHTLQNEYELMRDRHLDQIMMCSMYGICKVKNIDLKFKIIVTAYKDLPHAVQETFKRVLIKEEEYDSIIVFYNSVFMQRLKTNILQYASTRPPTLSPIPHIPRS

Rb^P S648T = molecular target: T5, Rb^P S648T (human, UniProt P06400 380-788, S648T)
T5 construct: also called variant 46
T5 sequence (looked up): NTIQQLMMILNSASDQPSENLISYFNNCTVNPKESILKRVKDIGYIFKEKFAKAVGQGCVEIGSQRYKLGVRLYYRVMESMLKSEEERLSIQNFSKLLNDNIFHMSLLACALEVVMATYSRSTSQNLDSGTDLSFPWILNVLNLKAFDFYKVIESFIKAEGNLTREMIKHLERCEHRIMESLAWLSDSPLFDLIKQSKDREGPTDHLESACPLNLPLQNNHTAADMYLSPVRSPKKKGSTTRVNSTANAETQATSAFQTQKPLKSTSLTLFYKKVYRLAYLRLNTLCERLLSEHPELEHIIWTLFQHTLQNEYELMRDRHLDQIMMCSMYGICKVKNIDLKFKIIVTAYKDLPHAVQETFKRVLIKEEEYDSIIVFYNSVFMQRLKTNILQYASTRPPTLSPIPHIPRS

B1: TMR-E2F1^TD, peptide of the E2F1 transactivation domain (peptide)
peptide: {TMR}-GEGIRDLFDCDFGDLTPLD
notes: also called E2F^TD; source: synthetic peptide, bought: GenScript
Kd (Rb^P E539D): 55 nM
Kd (Rb^P K548N): 133 nM
Kd (Rb^P V754G): 20 nM
Kd (Rb^P Y606C): 15 nM
Kd (Rb^P S648T): 33 nM

B2: TMR-E7^LxCxE, LxCxE peptide of the E7 oncoprotein from HPV (peptide)
peptide: DLYCYEQLN
modifications: also: TMR label, position not given here
notes: source: synthetic peptide, bought: GenScript
Kd (Rb^P E539D): 7 nM
Kd (Rb^P K548N): 6 nM
Kd (Rb^P V754G): 7 nM
Kd (Rb^P Y606C): 7 nM
Kd (Rb^P S648T): 6 nM
